Results published in article PMC5123050.

Target: 32P-labelled ORF145/RIP (protein kinase A recognition sequence and C-terminal His-tag) (Acidianus two-tailed virus (ATV))
Test: native gel or EMSA; 32P-ORF145/RIP (1 nM) with 1–100 nM Sso RNAP in 10 mM MOPS pH 6.5, 10 mM MgCl2, 260 mM NaCl, 5 mM DTT, 10% glycerol, BSA, 2 mM ATP, 65 °C 5 min; 6% native PAGE; tight binding equation; complexes also resistant to 2 M NaCl

## Sulfolobus solfataricus (Sso) RNA polymerase, 13 subunits (from UniProt Q980R2 1-880) (complex)
  Kd: 12.6 nM
